What was measured:
CD28 [1] = molecular target: T1, CD28 (Homo sapiens, UniProt P10747); experiment: Flow binding to Jurkat/IL2 reporter cells (CD28); parameters: host or cells: Jurkat cells expressing an IL-2-luciferase reporter; conditions: 33.3 nM; for CD28 MFI at 33.3 nM: Jurkats (CD28); for CD28 Fold change to WT CD80: relative to CD80 WT IgV-Fc
In short: (§1)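 Binding EC50 and PE mean fluorescence intensity derived by flow cytometry using PE-labelled anti-human Fc secondary. Target cells were CTLA4- or PD-L1-transfected CHO lines and CD28-expressing Jurkat/IL2 reporter cells, stained with fusion proteins on ice for 45 min following BSA blocking.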

CD28 [2] = molecular target: T1, CD28; experiment: Jurkat/IL2 + CHO/OKT3 +/- PD-L1 reporter assay: PD-L1-dependent CD28 costimulation; type: cell-based; parameters: host or cells: Jurkat cells expressing an IL-2-luciferase reporter; conditions: Jurkat/IL2 + CHO/OKT3/PD-L1; for Relative Luciferase Units (RLU), CD80 Cone 5.0 nM / Fold Increase over WT CD80-IgV-Fe: 5.0 nM
In short: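 Readout is relative luminescence from lysed cocultures: test protein given 15 min at room temperature to Jurkat cells before adding CHO artificial APCs displaying OKT3 alone or OKT3 plus PD-L1, then 5 h at 37 °C, 5% CO2.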

huCTLA4 = huCTLA4 (Homo sapiens, UniProt P16410); experiment: Flow binding to CHO cells stably expressing CTLA4; parameters: huCTLA4 and huPD-L1, full-length mammalian surface expression constructs were generated; expressed in transfected cells; host or cells: CHO cells, lentiviral transduction, sorted to >98% purity; conditions: 33.3 nM; for CTLA4 MFI at 33.3 nM: CHO cells stably expressing CTLA4; for CTLA4 Fold change to WT CD80: relative to CD80 WT IgV-Fc
Chain of huCTLA4 (P16410 36-223): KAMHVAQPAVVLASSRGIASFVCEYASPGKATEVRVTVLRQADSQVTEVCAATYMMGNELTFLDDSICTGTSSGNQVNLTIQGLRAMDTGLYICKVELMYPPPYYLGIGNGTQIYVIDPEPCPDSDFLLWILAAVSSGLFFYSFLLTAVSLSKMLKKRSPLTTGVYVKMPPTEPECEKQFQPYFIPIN
In short: as §1

huPD-L1 = huPD-L1 (Homo sapiens, UniProt Q9NZQ7); experiment: Flow binding to CHO cells stably expressing PD-L1; parameters: huCTLA4 and huPD-L1, full-length mammalian surface expression constructs were generated; expressed in transfected cells; host or cells: CHO cells, lentiviral transduction, sorted to >98% purity; conditions: Table E10; for PD-L1 MFI at 33.3 nM: CHO cells stably expressing PD-L1; for PD-L1 MFI at 33.3 nM / PD-L1 Fold change to WT CD80: 33.3 nM; for PD-L1 Fold change to WT CD80: relative to CD80 WT IgV-Fc; for Ratio of PDL1:CD28: binding to PD-L1 compared to binding to CD28
Chain of huPD-L1 (Q9NZQ7 19-290): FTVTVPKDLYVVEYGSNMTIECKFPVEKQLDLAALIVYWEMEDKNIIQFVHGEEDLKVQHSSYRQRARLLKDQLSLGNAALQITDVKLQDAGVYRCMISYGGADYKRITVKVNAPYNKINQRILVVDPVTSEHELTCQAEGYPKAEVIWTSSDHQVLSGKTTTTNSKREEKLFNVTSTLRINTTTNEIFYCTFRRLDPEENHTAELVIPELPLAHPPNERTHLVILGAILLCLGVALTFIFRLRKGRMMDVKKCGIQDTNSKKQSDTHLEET
In short: as §1

B1: V22D/E24D/E35D/M47V/V68M (protein)
chain: VIHVTKEVKEVATLSCGHNVSDEDLAQTRIYWQKDKKMVLTMMSGDVNIWPEYKNRTIFDITNNLSIMILALRPSDEGTYECVVLKYEKDAFKREHLAEVTLSVKADFPTPSISDFETPTSNIRRIICSTSGGFPEPHLSWLENGEELNAINTTVSQDPETELYAVSSKLDFNMTTNHSFMCLIKYGHLRVNQTFNWNTTKQEHFPDN
modifications: CD80 v385 ECD
- CD28 MFI at 33.3 nM (CD28 [1]; Table E11): 191
- Relative Luciferase Units (RLU), CD80 Cone 5.0 nM (CD28 [2]; Table E13): 1023 RLU
- CTLA4 MFI at 33.3 nM (huCTLA4; Table E11): 16899

B2: D46V/M47I/A71G (protein)
chain: VIHVTKEVKEVATLSCGHNVSVEELAQTRIYWQKEKKMVLTMMSGVINIWPEYKNRTIFDITNNLSIVILGLRPSDEGTYECVVLKYEKDAFKREHLAEVTLSVKAD
- CD28 MFI at 33.3 nM (CD28 [1]; Table E10): 1325
- CD28 Fold change to WT CD80 (CD28 [1]; Table E10): 20.1
- Fold Increase over WT CD80-IgV-Fe (CD28 [2]; Table E12): 4.0
- Relative Luciferase Units (RLU), CD80 Cone 5.0 nM (CD28 [2]; Table E12): 1601 RLU
- CTLA4 MFI at 33.3 nM (huCTLA4; Table E10): 28420
- CTLA4 Fold change to WT CD80 (huCTLA4; Table E10): 14.8
- PD-L1 MFI at 33.3 nM (huPD-L1): 7328
- PD-L1 Fold change to WT CD80 (huPD-L1): 104.2
- Ratio of PDL1:CD28 (huPD-L1): 6

B3: M47V/V68M/K89N (protein)
chain: VIHVTKEVKEVATLSCGHNVSVEELAQTRIYWQKEKKMVLTMMSGDVNIWPEYKNRTIFDITNNLSIMILALRPSDEGTYECVVLKYENDAFKREHLAEVTLSVKAD
- CD28 MFI at 33.3 nM (CD28 [1]; Table E19): 1324
- Relative Luciferase Units (RLU), CD80 Conc 5.0 nM (CD28 [2]; Table E21): 862 RLU
- CTLA4 MFI at 33.3 nM (huCTLA4; Table E19): 24787

B4: E35D/N48K/V68M (protein)
chain: VIHVTKEVKEVATLSCGHNVSVEELAQTRIYWQKDKKMVLTMMSGDMKIWPEYKNRTIFDITNNLSIMILALRPSDEGTYECVVLKYEKDAFKREHLAEVTLSVKAD
- CD28 MFI at 33.3 nM (CD28 [1]; Table E19): 642
- Relative Luciferase Units (RLU), CD80 Conc 5.0 nM (CD28 [2]; Table E21): 721 RLU
- CTLA4 MFI at 33.3 nM (huCTLA4; Table E19): 33583

B5: E35D/M47V/K89N (protein)
chain: VIHVTKEVKEVATLSCGHNVSVEELAQTRIYWQKDKKMVLTMMSGDVNIWPEYKNRTIFDITNNLSIVILALRPSDEGTYECVVLKYENDAFKREHLAEVTLSVKAD
- CD28 MFI at 33.3 nM (CD28 [1]; Table E19): 507
- Relative Luciferase Units (RLU), CD80 Conc 5.0 nM (CD28 [2]; Table E21): 668 RLU
- CTLA4 MFI at 33.3 nM (huCTLA4; Table E19): 39282

B6: E35D/V68M/A71G/D90G (protein)
chain: VIHVTKEVKEVATLSCGHNVSVEELAQTRIYWQKDKKMVLTMMSGDMNIWPEYKNRTIFDITNNLSIMILGLRPSDEGTYECVVLKYEKGAFKREHLAEVTLSVKAD
- CD28 MFI at 33.3 nM (CD28 [1]; Table E20): 2843
- Relative Luciferase Units (RLU), CD80 Conc 5.0 nM (CD28 [2]; Table E22): 990 RLU
- CTLA4 MFI at 33.3 nM (huCTLA4; Table E20): 23290

B7: H18Y/E35D/M47L/A71G/A91S (protein)
chain: VIHVTKEVKEVATLSCGYNVSVEELAQTRIYWQKDKKMVLTMMSGDLNIWPEYKNRTIFDITNNLSIVILGLRPSDEGTYECVVLKYEKDSFKREHLAEVTLSVKAD
- CD28 MFI at 33.3 nM (CD28 [1]; Table E10): 528
- CD28 Fold change to WT CD80 (CD28 [1]; Table E10): 8.0
- Fold Increase over WT CD80-IgV-Fe (CD28 [2]; Table E12): 4.7
- Relative Luciferase Units (RLU), CD80 Cone 5.0 nM (CD28 [2]; Table E12): 1898 RLU
- CTLA4 MFI at 33.3 nM (huCTLA4; Table E10): 24218
- CTLA4 Fold change to WT CD80 (huCTLA4; Table E10): 12.6
- PD-L1 MFI at 33.3 nM (huPD-L1): 7582
- PD-L1 Fold change to WT CD80 (huPD-L1): 107.9
- Ratio of PDL1:CD28 (huPD-L1): 14

Source: patent US20220177587A1, “METHODS AND USES OF VARIANT CD80 FUSION PROTEINS AND RELATED CONSTRUCTS” (Alpine Immune Sciences, Inc., priority 2018, published 2022)
